T1: human FcγRIIA-Arg131 α subunit extracellular domain-His6-GST fusion (human, UniProt P12318 34-217)
T1 construct: extracellular domain; also called FcγRIIA-R131; not shown: glutathione S transferase (GST)
T1 sequence: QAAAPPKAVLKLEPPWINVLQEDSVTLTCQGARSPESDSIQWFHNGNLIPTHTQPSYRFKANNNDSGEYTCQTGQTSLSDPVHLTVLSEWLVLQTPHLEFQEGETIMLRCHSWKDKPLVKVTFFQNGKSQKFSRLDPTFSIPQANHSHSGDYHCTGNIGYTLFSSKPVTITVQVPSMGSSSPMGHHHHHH

T2: human FcγRIIB α subunit extracellular domain-His6-GST fusion (human, UniProt P31994 43-217)
T2 construct: extracellular domain; also called CD32; not shown: glutathione S transferase (GST)
T2 sequence: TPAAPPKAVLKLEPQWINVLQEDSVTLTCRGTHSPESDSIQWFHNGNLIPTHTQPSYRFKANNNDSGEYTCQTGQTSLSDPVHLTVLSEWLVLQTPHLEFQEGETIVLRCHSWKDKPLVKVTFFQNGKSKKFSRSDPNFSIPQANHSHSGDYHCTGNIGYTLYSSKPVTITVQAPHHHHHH

T3: human FcγRIIA-R131 α subunit extracellular domain-6His-GST fusion (human, UniProt P12318 34-217)
T3 construct: also called FcγRIIA-Arg131; not shown: glutathione S-transferase (GST)
T3 sequence: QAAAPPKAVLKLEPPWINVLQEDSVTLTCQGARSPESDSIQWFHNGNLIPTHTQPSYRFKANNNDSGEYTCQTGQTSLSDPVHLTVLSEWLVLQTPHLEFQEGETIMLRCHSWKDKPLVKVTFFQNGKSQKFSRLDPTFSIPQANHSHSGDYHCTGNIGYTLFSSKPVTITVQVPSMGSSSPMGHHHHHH

T4: human FcγRIIB α subunit extracellular domain-6His-GST fusion (human, UniProt P31994 43-217)
T4 construct: not shown: glutathione S-transferase (GST)
T4 sequence: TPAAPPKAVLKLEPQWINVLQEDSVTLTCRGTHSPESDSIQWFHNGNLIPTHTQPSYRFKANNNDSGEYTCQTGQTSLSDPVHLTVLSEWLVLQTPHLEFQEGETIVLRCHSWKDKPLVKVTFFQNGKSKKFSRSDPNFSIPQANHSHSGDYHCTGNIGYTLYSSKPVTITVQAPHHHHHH


Key:
[1] = molecular target: T1, human FcγRIIA-Arg131 α subunit …; experiment: hexamer ELISA
[2] = molecular target: T2, human FcγRIIB α subunit extracellular …; experiment: hexamer ELISA
[3] = molecular target: T5, human FcγRIIIA-Phe158 α subunit extracellular domain-His6-GST fusion (human, UniProt P08637 17-208); experiment: hexamer ELISA
T5 construct: extracellular domain; also called FcγRIIIA-F158; CD16; not shown: glutathione S transferase (GST)

[4] = molecular target: T6, human neonatal Fc receptor (FcRn), biotinylated (human, UniProt P55899 24-297; P61769 21-119, biotinylated (biotin-X-NHS)); experiment: FcRn ELISA, pH 6.0;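 also: Streptavidin-captured FcRn plates, IgG variants titrated 2 h at pH 6.0, peroxidase anti-human IgG read at 450 nm, variant over standard concentration at the standard curve mid-point absorbance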
T6 construct: captured on streptavidin plates

[5] = molecular target: T3, human FcγRIIA-R131 α subunit …; experiment: ELISA, IgG:IgE hexamers on receptor-GST
[6] = molecular target: T4, human FcγRIIB α subunit extracellular …; experiment: ELISA, IgG:IgE hexamers on receptor-GST
[7] = molecular target: T7, human FcγRIIIA-F158 α subunit extracellular domain-6His-GST fusion (human, UniProt P08637 17-208); experiment: ELISA, IgG:IgE hexamers on receptor-GST
T7 construct: also called FcγRIIIA-Phe158; not shown: glutathione S-transferase (GST)
T7 sequence (P08637 other isoform, or with tags, fused parts or gaps, form in doubt): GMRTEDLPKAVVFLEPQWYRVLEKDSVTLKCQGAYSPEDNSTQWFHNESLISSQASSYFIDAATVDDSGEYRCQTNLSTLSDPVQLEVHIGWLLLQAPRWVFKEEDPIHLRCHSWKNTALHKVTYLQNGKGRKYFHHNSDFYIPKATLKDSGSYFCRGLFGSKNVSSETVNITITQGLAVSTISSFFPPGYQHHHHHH

T5 sequence (P08637 other isoform, or with tags, fused parts or gaps): as the sequence (P08637 other isoform, or with tags, fused parts or gaps, form in doubt) above

Binder	ratio to native IgG1 [1] [ratio]	ratio to native IgG1 [2] [ratio]	ratio to native IgG1 [3] [ratio]	ratio to native IgG1 [4] [ratio]	ratio to native IgG1 [5]	ratio to native IgG1 [6]	ratio to native IgG1 [7]
E27 IgG1 variant S324(343)E (antibody, also called IG2 216) heavy: not shown light: DIQLTQSPSSLSASVGDRVTITCRASKPVDGEGDSYLNWYQQKPGKAPKLLIYAASYLESGVPSRFSGSGSGTDFTLTISSLQPEDFATYYCQQSHEDPYTFGQGTKVEIKRTVAAPSVFIFPPSDEQLKSGTASVVCLLNNFYPREAKVQWKVDNALQSGNSQESVTEQDSKDSTYSLSSTLTLSKADYEKHKVYACEVTHQGLSSPVTKSFNRGEC					0.82	0.73	0.81
E27 IgG1 variant S324(343)Q (antibody, also called IG2 214) heavy: not shown light: DIQLTQSPSSLSASVGDRVTITCRASKPVDGEGDSYLNWYQQKPGKAPKLLIYAASYLESGVPSRFSGSGSGTDFTLTISSLQPEDFATYYCQQSHEDPYTFGQGTKVEIKRTVAAPSVFIFPPSDEQLKSGTASVVCLLNNFYPREAKVQWKVDNALQSGNSQESVTEQDSKDSTYSLSSTLTLSKADYEKHKVYACEVTHQGLSSPVTKSFNRGEC					0.82	0.83	0.78
E27 IgG1 variant S324(343)K (antibody, also called IG2 215) heavy: not shown light: DIQLTQSPSSLSASVGDRVTITCRASKPVDGEGDSYLNWYQQKPGKAPKLLIYAASYLESGVPSRFSGSGSGTDFTLTISSLQPEDFATYYCQQSHEDPYTFGQGTKVEIKRTVAAPSVFIFPPSDEQLKSGTASVVCLLNNFYPREAKVQWKVDNALQSGNSQESVTEQDSKDSTYSLSSTLTLSKADYEKHKVYACEVTHQGLSSPVTKSFNRGEC					0.66	0.37	0.77
E27 IgG1 variant S298(317)T (antibody, also called IG2 71) heavy: not shown light: DIQLTQSPSSLSASVGDRVTITCRASKPVDGEGDSYLNWYQQKPGKAPKLLIYAASYLESGVPSRFSGSGSGTDFTLTISSLQPEDFATYYCQQSHEDPYTFGQGTKVEIKRTVAAPSVFIFPPSDEQLKSGTASVVCLLNNFYPREAKVQWKVDNALQSGNSQESVTEQDSKDSTYSLSSTLTLSKADYEKHKVYACEVTHQGLSSPVTKSFNRGEC					0.29	0.27	0.73
E27 IgG1 variant S324(343)N (antibody, also called IG2 213) heavy: not shown light: DIQLTQSPSSLSASVGDRVTITCRASKPVDGEGDSYLNWYQQKPGKAPKLLIYAASYLESGVPSRFSGSGSGTDFTLTISSLQPEDFATYYCQQSHEDPYTFGQGTKVEIKRTVAAPSVFIFPPSDEQLKSGTASVVCLLNNFYPREAKVQWKVDNALQSGNSQESVTEQDSKDSTYSLSSTLTLSKADYEKHKVYACEVTHQGLSSPVTKSFNRGEC					1.15	1.09	0.97
E27 IgG1 variant T256(269)G (antibody, also called IG2 176) heavy: not shown light: DIQLTQSPSSLSASVGDRVTITCRASKPVDGEGDSYLNWYQQKPGKAPKLLIYAASYLESGVPSRFSGSGSGTDFTLTISSLQPEDFATYYCQQSHEDPYTFGQGTKVEIKRTVAAPSVFIFPPSDEQLKSGTASVVCLLNNFYPREAKVQWKVDNALQSGNSQESVTEQDSKDSTYSLSSTLTLSKADYEKHKVYACEVTHQGLSSPVTKSFNRGEC					1.1	1.06	0.96
E27 IgG1 variant S298(317)V (antibody, also called IG2 218) heavy: not shown light: DIQLTQSPSSLSASVGDRVTITCRASKPVDGEGDSYLNWYQQKPGKAPKLLIYAASYLESGVPSRFSGSGSGTDFTLTISSLQPEDFATYYCQQSHEDPYTFGQGTKVEIKRTVAAPSVFIFPPSDEQLKSGTASVVCLLNNFYPREAKVQWKVDNALQSGNSQESVTEQDSKDSTYSLSSTLTLSKADYEKHKVYACEVTHQGLSSPVTKSFNRGEC					0.11	0.17	0.33

Second part, the binder after the results:

ratio to native IgG1 [1] [ratio]	ratio to native IgG1 [2] [ratio]	ratio to native IgG1 [3] [ratio]	ratio to native IgG1 [4] [ratio]	ratio to native IgG1 [5]	ratio to native IgG1 [6]	ratio to native IgG1 [7]	Binder
0.05	0.1	0.03	0.8				anti-IgE E27 IgG1 Asn297Ala (antibody, removes the Asn-linked glycosylation site) heavy: not shown light: DIQLTQSPSSLSASVGDRVTITCRASKPVDGEGDSYLNWYQQKPGKAPKLLIYAASYLESGVPSRFSGSGSGTDFTLTISSLQPEDFATYYCQQSHEDPYTFGQGTKVEIKRTVAAPSVFIFPPSDEQLKSGTASVVCLLNNFYPREAKVQWKVDNALQSGNSQESVTEQDSKDSTYSLSSTLTLSKADYEKHKVYACEVTHQGLSSPVTKSFNRGEC
				1.19	1.14	1.3	E27 IgG1 variant T335(354)K (antibody, also called IG2 195) heavy: not shown light: DIQLTQSPSSLSASVGDRVTITCRASKPVDGEGDSYLNWYQQKPGKAPKLLIYAASYLESGVPSRFSGSGSGTDFTLTISSLQPEDFATYYCQQSHEDPYTFGQGTKVEIKRTVAAPSVFIFPPSDEQLKSGTASVVCLLNNFYPREAKVQWKVDNALQSGNSQESVTEQDSKDSTYSLSSTLTLSKADYEKHKVYACEVTHQGLSSPVTKSFNRGEC
				1.24	1.3	1.19	E27 IgG1 variant T335(354)E (antibody, also called IG2 194) heavy: not shown light: DIQLTQSPSSLSASVGDRVTITCRASKPVDGEGDSYLNWYQQKPGKAPKLLIYAASYLESGVPSRFSGSGSGTDFTLTISSLQPEDFATYYCQQSHEDPYTFGQGTKVEIKRTVAAPSVFIFPPSDEQLKSGTASVVCLLNNFYPREAKVQWKVDNALQSGNSQESVTEQDSKDSTYSLSSTLTLSKADYEKHKVYACEVTHQGLSSPVTKSFNRGEC
				0.96	0.93	1.38	E27 IgG1 variant Y296(313)W (antibody, also called IG2 186) heavy: not shown light: DIQLTQSPSSLSASVGDRVTITCRASKPVDGEGDSYLNWYQQKPGKAPKLLIYAASYLESGVPSRFSGSGSGTDFTLTISSLQPEDFATYYCQQSHEDPYTFGQGTKVEIKRTVAAPSVFIFPPSDEQLKSGTASVVCLLNNFYPREAKVQWKVDNALQSGNSQESVTEQDSKDSTYSLSSTLTLSKADYEKHKVYACEVTHQGLSSPVTKSFNRGEC
				0.9	0.81	0.92	E27 IgG1 variant Y296(313)H (antibody) heavy: not shown light: DIQLTQSPSSLSASVGDRVTITCRASKPVDGEGDSYLNWYQQKPGKAPKLLIYAASYLESGVPSRFSGSGSGTDFTLTISSLQPEDFATYYCQQSHEDPYTFGQGTKVEIKRTVAAPSVFIFPPSDEQLKSGTASVVCLLNNFYPREAKVQWKVDNALQSGNSQESVTEQDSKDSTYSLSSTLTLSKADYEKHKVYACEVTHQGLSSPVTKSFNRGEC
				1.03	0.89	1.13	E27 IgG1 variant T256(269)N (antibody) heavy: not shown light: DIQLTQSPSSLSASVGDRVTITCRASKPVDGEGDSYLNWYQQKPGKAPKLLIYAASYLESGVPSRFSGSGSGTDFTLTISSLQPEDFATYYCQQSHEDPYTFGQGTKVEIKRTVAAPSVFIFPPSDEQLKSGTASVVCLLNNFYPREAKVQWKVDNALQSGNSQESVTEQDSKDSTYSLSSTLTLSKADYEKHKVYACEVTHQGLSSPVTKSFNRGEC
				0.64	0.34	0.2	E27 IgG1 variant V303(322)T (antibody) heavy: not shown light: DIQLTQSPSSLSASVGDRVTITCRASKPVDGEGDSYLNWYQQKPGKAPKLLIYAASYLESGVPSRFSGSGSGTDFTLTISSLQPEDFATYYCQQSHEDPYTFGQGTKVEIKRTVAAPSVFIFPPSDEQLKSGTASVVCLLNNFYPREAKVQWKVDNALQSGNSQESVTEQDSKDSTYSLSSTLTLSKADYEKHKVYACEVTHQGLSSPVTKSFNRGEC
				0.89	0.73	0.76	E27 IgG1 variant V303(322)L (antibody, also called IG2 150) heavy: not shown light: DIQLTQSPSSLSASVGDRVTITCRASKPVDGEGDSYLNWYQQKPGKAPKLLIYAASYLESGVPSRFSGSGSGTDFTLTISSLQPEDFATYYCQQSHEDPYTFGQGTKVEIKRTVAAPSVFIFPPSDEQLKSGTASVVCLLNNFYPREAKVQWKVDNALQSGNSQESVTEQDSKDSTYSLSSTLTLSKADYEKHKVYACEVTHQGLSSPVTKSFNRGEC
				0.86	0.79	0.84	E27 IgG1 variant T335(354)Q (antibody, also called IG2 171) heavy: not shown light: DIQLTQSPSSLSASVGDRVTITCRASKPVDGEGDSYLNWYQQKPGKAPKLLIYAASYLESGVPSRFSGSGSGTDFTLTISSLQPEDFATYYCQQSHEDPYTFGQGTKVEIKRTVAAPSVFIFPPSDEQLKSGTASVVCLLNNFYPREAKVQWKVDNALQSGNSQESVTEQDSKDSTYSLSSTLTLSKADYEKHKVYACEVTHQGLSSPVTKSFNRGEC

From patent US7183387 (Genentech, dated 2007)
